From the FLAb antibody collection (doi:10.7554/elife.23156)

B1: scFv; the commonest letter at each place (parent)
chain 1: EVKLDETGGGLVQPGRPMKLSCVASGFTFSDYWMNWVRQSPEKGLEWVAQIRNKPYNYETYYSDSVKGRFTISRDDSKSSVYLQMNNLRVEDMGIYYCTGSYYGMDYWGQGTSVTVS
chain 2: DVVMTQTPLSLPVSLGDQASISCRSSQSLVHSNGNTYLRWYLQKPGQSPKVLIYKVSNRFSGVPDRFSGSGSGTDFTLKISRVEAEDLGVYFCSQSTHVPWTFGGGTKLEIK

Experiments:
fluorescein = variants of: B1; experiment: Kd (Tite-Seq); conditions: with fluorescein; format: scFv 4-4-20, heavy + light
[1] = variants of: B1; experiment: yeast surface expression (ratio to wild type); higher = more expressed; conditions: format: scFv 4-4-20, heavy + light

Row | Variant | Kd (fluorescein) | yeast surface expression [1]
1 | chain 1 Y32K W33T | ≥ 10 µM | 0.694
2 | chain 1 G100S Y107D | ≥ 10 µM | 0.543
3 | chain 1 W108P G109N | ≥ 10 µM | 0.473
4 | chain 1 Y32F V37I | 0.0125 µM | 0.835
5 | chain 1 Y32C W36R | ≥ 10 µM | 0.506
6 | chain 1 Y102C W108I | ≤ 0.000316 µM | 0.7
7 | chain 1 N35E V37W | ≥ 10 µM | 0.704
8 | chain 1 M105A D106V | ≥ 10 µM | 0.494
9 | chain 1 S30F N35T | ≥ 10 µM | 0.588
10 | chain 1 S30F N35C | ≥ 10 µM | 0.555
11 | chain 1 S101Q M105Y | ≥ 10 µM | 0.795
12 | chain 1 V37I | 0.00239 µM | 0.916
13 | chain 1 T28H S30D | 0.00184 µM | 0.948
14 | chain 1 T28G W36N | ≥ 10 µM | 0.456
15 | chain 1 F29W D31G | 5.37 µM | 0.567
16 | chain 1 T28F F29R | ≥ 10 µM | 0.797
17 | chain 1 S30Y D31A N35A | ≥ 10 µM | 0.451

More lines, main results first:

Row | Kd (fluorescein) | Variant | yeast surface expression [1]
18 | ≥ 10 µM | chain 1 D31E W36H | 0.658
19 | ≥ 10 µM | chain 1 Y102L Y107C G109A | 0.168
20 | ≥ 10 µM | chain 1 D31F W33I | 0.487
21 | 0.004 µM | chain 1 T28V F29Q | 0.917
22 | 0.0015 µM | chain 1 T28D S30P | 1.24
23 | ≥ 10 µM | chain 1 G100C S101W | 0.507
24 | ≥ 10 µM | chain 1 T28K Y32V | 0.858
25 | 3.55 µM | chain 1 V37K | 0.351
26 | ≥ 10 µM | chain 1 M105K Y107L G109V | 0.223
27 | ≥ 10 µM | chain 1 D106W G109K | 0.167
28 | ≥ 10 µM | chain 1 Y102G Y103D | 1.29
29 | ≥ 10 µM | chain 1 M105D D106C | 0.616
